What was measured:
[1] = circular dichroism of synthetic TM peptides; assay type: physicochemical; conditions: DDM detergent solution; lipophilic environment
Method: CD spectra were recorded using a J-810 spectropolarimeter (Jasco, Easton, MD, USA) in a 0.1 cm quartz cuvette. Far-UV CD spectra were collected over 190–260 nm. ITC measurements were carried out at 20 °C on an ITC (VP–ITC 200, MicroCal). 820 µM FZD6 TM5 and 165 µM FZD6 TM4 were dissolved in 0.5% DDM in water. 2 µl of TM5 peptide were injected into 260 µl TM4 during each titration. The ITC data were analyzed with the Origin 7.0 software.
Supplementary Figure 5: Circular dichroism (CD) and isothermal titration calorimetry (ITC) experiments for structural analysis of synthetic peptides resembling TM1, 4, 5 and mutant TM5 and of peptide-peptide interactions, related to Figure 3. Synthetic peptides (for sequence see Supplementary Fig. 9) resembling TM1 (a), 4 (b), 5 (c) and mutant TM5 (d) were used for CD experiments in triple distilled water with increasing DDM concentrations (0% DDM – black, 0.01% DDM – blue, 0.1% DDM – green and 0.5% DDM – red). (c)TM5 is unstructured in TDW and begins to gain structure at 0.1% DDM. It forms a clear α-helical structure in 0.5% DDM. The triple mutated TM5 (d) forms an α-helix in a much lower DDM concentration (0.01% DDM). […]

FZD6–FZD6 dimer = assay: dcFRAP of V5-FZD6-mCherry/FZD6-GFP (FZD6 dimerization); assay type: cell-based, human; conditions: HEK293; for dimerization by CL-induced decrease of mobile fraction: GFP-tagged mutant with wt V5-FZD6-mCherry, anti-V5/avidin crosslinking
Method: For dual color FRAP experiments, cells grown in four compartment 35 mm glass bottom dishes were washed three times with BE buffer[19] (150 mM NaCl, 2.5 mM KCl, 10 mM HEPES, 12 mM glucose, 0.5 mM CaCl2, and 0.5 mM MgCl2). Then, the cells were incubated at RT for 30 min with biotin-conjugated goat polyclonal anti-V5 antibody (Bethyl) diluted 1:100 in BE buffer supplemented with 2.5% bovine serum albumin. For antibody-mediated cross-linking, avidin was added and incubated for 15 min and washed two times with BE buffer before the experiments were performed. In Fig. 4, dcFRAP experiments are presented that employ chemical surface crosslinking to visualize assembly of FZD6 with DVL or heterotrimeric G proteins according to previously published protocols. Live cell imaging experiments were carried out using a Zeiss 710 laser scanning microscope. Images were acquired using a 40×, 1.2 NA C-Apochromat objective and the 488 nm and the 561 nm laser lines were used to excite GFP and mCherry fluorophores, respectively. Photobleaching was performed by 100% laser illumination of a 1.80 × 1.80 µm area placed over the cell plasma membrane. Fluorescence was measured pre- and post-bleach using low-intensity illumination for a total time period of 100 s. Average pixel intensity was measured using the ZEN2013 software, corrected for background fluctuations and bleaching artifacts and normalized to pre-bleached intensity. The recovered mobile fraction (F m) was calculated as follows: F m = (I P–I 0)/(I I–I 0), where I I is the initial intensity measured prior to bleaching, I 0 is the immediate fluorescence intensity post-bleaching and I P is intensity value post-bleaching. The mobile fraction was defined by the average of the fluorescence recovery assessed between time 85–101 s (including pre-bleach measurements). We excluded experiments in which the extracellularly tagged receptors were not sufficiently immobilized after the crosslinking procedure (cutoff at 40% crosslinking-induced reduction in mobile fraction). Kinetic determination of mobile fractions of crosslinked V5-FZD6-mCherry and FZD6-GFP with WNT stimulation over time were performed in one cell culture well. Measurements for each time point were performed on separate cells.
Statistical and graphical analysis was performed using Graph Pad Prism 5 software. Data were analyzed by two-tailed t-test or one-way ANOVA with Fisher’s least significant difference post hoc analysis. Curve fitting of FRAP data was done with a two-phase association nonlinear function using the least square fit. Data for receptor titration in the presence of C59 and output to P-ERK1/2 in Fig. 6h was fit to a linear regression model. All experiments were repeated at least three times in independent experiments (not representing technical replicates). For single cell analysis (dcFRAP), the number of the individual ROIs obtained from several cells in at least three independent experiments is provided in the figure legends. Data from individual ROIs are summarized for data presentation providing the sum of independent observations. Significance levels are given as: *P < 0.05; **P < 0.01; ***P < 0.001. Data in FRAP curves and bar graphs (FRAP) are presented as mean ± s.e.m.

| Molecule | dimerization by CL-induced decrease of mobile fraction (FZD6–FZD6 dimer) | also measured |
| --- | --- | --- |
| KKKVWFHAVAWGTPGFLTVMLLAMNKKK [TM4, synthetic peptide of FZD6 transmembrane helix 4] | – | secondary structure in detergent (CD) [1]: structured and α-helical |
| FZD6 dimer control mutant: FZD6 with D365E, R368K, Y369F (protein, left off: GFP, C-terminal, kept, FZD6 with D365E, R368K, Y369F) HSLFTCEPITVPRCMKMAYNMTFFPNLMGHYDQSIAAVEMEHFLPLANLECSPNIETFLCKAFVPTCIEQIHVVPPCRKLCEKVYSDCKKLIDTFGIRWPEELECDRLQYCDETVPVTFDPHTEFLGPQKKTEQVQRDIGFWCPRHLKTSGGQGYKFLGIDQCAPPCPNMYFKSDELEFAKSFIGTVSIFCLCATLFTFLTFLIDVRRFRYPERPIIYYSVCYSIVSLMYFIGFLLGDSTACNKADEKLELGDTVVLGSQNKACTVLFMLLYFFTMAGTVWWVILTITWFLAAGRKWSCEAIEQKAVWFHAVAWGTPGFLTVMLLAMNKVEGDNISGVCFVGLYDLEASKFFVLLPLCLCVFVGLSLLLAGIISLNHVRQVIQHDGRNQEKLKKFMIRIGVFSGLYLVPLVTLLGCYVYEQVNRITWEITWVSDHCRQYHIPCPYQAKAKARPELALFMIKYLMTLIVGISAVFWVGSKKTCTEWAGFFKRNRKRDPISESRRVLQESCEFFLKHNSKVKHKKKHYKPSSHKLKVISKSMGTSTGATANHGTSAVAITSHDYLGQETLTEIQTSPETSMREVKADGASTPRLREQDCGEPASPAASISRLSGEQVDGKGQAGSVSESARSEGRISPKSDITDTGLAQSNNLQVPSSSEPSSLKGSTSLLVHPVSGVRKEQGGGCHSDT | maintained the intrinsic ability of FZD6 to form dimers | – |
| FZD6 F337A mutant: FZD6 with F337A mutation on TM4 (protein) HSLFTCEPITVPRCMKMAYNMTFFPNLMGHYDQSIAAVEMEHFLPLANLECSPNIETFLCKAFVPTCIEQIHVVPPCRKLCEKVYSDCKKLIDTFGIRWPEELECDRLQYCDETVPVTFDPHTEFLGPQKKTEQVQRDIGFWCPRHLKTSGGQGYKFLGIDQCAPPCPNMYFKSDELEFAKSFIGTVSIFCLCATLFTFLTFLIDVRRFRYPERPIIYYSVCYSIVSLMYFIGFLLGDSTACNKADEKLELGDTVVLGSQNKACTVLFMLLYFFTMAGTVWWVILTITWFLAAGRKWSCEAIEQKAVWFHAVAWGTPGALTVMLLAMNKVEGDNISGVCFVGLYDLDASRYFVLLPLCLCVFVGLSLLLAGIISLNHVRQVIQHDGRNQEKLKKFMIRIGVFSGLYLVPLVTLLGCYVYEQVNRITWEITWVSDHCRQYHIPCPYQAKAKARPELALFMIKYLMTLIVGISAVFWVGSKKTCTEWAGFFKRNRKRDPISESRRVLQESCEFFLKHNSKVKHKKKHYKPSSHKLKVISKSMGTSTGATANHGTSAVAITSHDYLGQETLTEIQTSPETSMREVKADGASTPRLREQDCGEPASPAASISRLSGEQVDGKGQAGSVSESARSEGRISPKSDITDTGLAQSNNLQVPSSSEPSSLKGSTSLLVHPVSGVRKEQGGGCHSDT | exhibited a reduced ability to dimerize | – |
| DVL2-MYC: overexpressed MYC-tagged DVL2 (protein, UniProt O14641 1-736, looked up, MYC tag) Segment polarity protein …: MAGSSTGGGGVGETKVIYHLDEEETPYLVKIPVPAERITLGDFKSVLQRPAGAKYFFKSMDQDFGVVKEEISDDNARLPCFNGRVVSWLVSSDNPQPEMAPPVHEPRAELAPPAPPLPPLPPERTSGIGDSRPPSFHPNVSSSHENLEPETETESVVSLRRERPRRRDSSEHGAGGHRTGGPSRLERHLAGYESSSTLMTSELESTSLGDSDEEDTMSRFSSSTEQSSASRLLKRHRRRRKQRPPRLERTSSFSSVTDSTMSLNIITVTLNMEKYNFLGISIVGQSNERGDGGIYIGSIMKGGAVAADGRIEPGDMLLQVNDMNFENMSNDDAVRVLRDIVHKPGPIVLTVAKCWDPSPQAYFTLPRNEPIQPIDPAAWVSHSAALTGTFPAYPGSSSMSTITSGSSLPDGCEGRGLSVHTDMASVTKAMAAPESGLEVRDRMWLKITIPNAFLGSDVVDWLYHHVEGFPERREARKYASGLLKAGLIRHTVNKITFSEQCYYVFGDLSGGCESYLVNLSLNDNDGSSGASDQDTLAPLPGATPWPLLPTFSYQYPAPHPYSPQPPPYHELSSYTYGGGSASSQHSEGSRSSGSTRSDGGAGRTGRPEERAPESKSGSGSESEPSSRGGSLRRGGEASGTSDGGPPPSRGSTGGAPNLRAHPGLHPYGPPPGMALPYNPMMVVMMPPPPPPVPPAVQPPGAPPVRDLGSVPPELTASRQSFHMAMGNPSEFFVDVM | – | effect of altered DVL level on FZD6 dimer formation (FZD6–FZD6 dimer; V5-FZD6-mCherry/FZD6-GFP, pan-DVL siRNA or overexpressed DVL2-MYC): Absence of a role for DVL and G proteins in FZD6 dimer formation |

Source: publication PMC5548745, “Agonist-induced dimer dissociation as a macromolecular step in G protein-coupled receptor signaling” (Nature Communications, 2017)
